Experimental data: patent US20040121323, “Mrna binding motif” (published 2004)

Experiments:
Grb7 PH-SH2 fragment = Grb7 PH-SH2 fragment (Homo sapiens, UniProt Q14451 Q14451:229-532); assay: EMSA; details: tags: GST; label: 32P
[1] = biological target: T1, Grb14 SH2 domain (aa 426-540) (Homo sapiens, UniProt Q14449 Q14449:426-540); assay: EMSA; details: tags: GST; label: 32P
T1 sequence: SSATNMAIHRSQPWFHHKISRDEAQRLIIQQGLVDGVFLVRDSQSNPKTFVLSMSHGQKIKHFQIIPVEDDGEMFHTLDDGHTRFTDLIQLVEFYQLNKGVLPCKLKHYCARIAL

Grb7 PH-SH2 fragment, sequence (Q14451 229-532, one chain of several): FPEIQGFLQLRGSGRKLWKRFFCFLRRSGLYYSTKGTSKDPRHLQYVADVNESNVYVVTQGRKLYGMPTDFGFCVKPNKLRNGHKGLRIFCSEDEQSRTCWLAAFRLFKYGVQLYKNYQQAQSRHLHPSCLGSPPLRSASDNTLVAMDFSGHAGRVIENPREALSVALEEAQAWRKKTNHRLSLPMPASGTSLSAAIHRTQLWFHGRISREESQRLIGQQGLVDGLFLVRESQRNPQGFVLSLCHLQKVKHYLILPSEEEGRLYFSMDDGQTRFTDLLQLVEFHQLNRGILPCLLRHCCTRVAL

B1: erbB-2 3'-UTR U-rich probe (ssRNA)
RNA: UUUGUACAGAGUGCUUUUCUGUUUAGUUUUUACUUUUUUUGUUUUGUUUUUUUAAAGACGAAAUAAAGA
binding result (Grb7 PH-SH2 fragment): binds | binding result [1]: binds
